System: Bacillus subtilis DB104 (SP-AmyQ fusion secretion)
Test: AmyQ secretion efficiency, weighted average sort bin (1 = best secretion, 10 = worst) (bin number (weighted average, 1-10)); higher = lower secretion efficiency
How it was run: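 With fluorescein-starch as substrate, a B. subtilis DB104 library expressing mature AmyQ fused to designed signal peptides (integrated at amyE) was encapsulated at about 0.3 cells per ~65 nL alginate bead. After about 13 h at room temperature, beads were nile red stained, and occupied beads were sorted by large-particle flow cytometry into 10 equally populated bins by green/red fluorescence ratio. Illumina sequencing of the amplicons in each bin was used to calculate the secretion score, which is the read-frequency-weighted average bin number, normalised to beads per bin, with low-abundance sequences left out.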

Sequence: MKLRKVLTGSVLSLGLLPPSSPAFATSP
- AmyQ secretion efficiency: 1.49

Sequence: MKLRKVLTGSVLSLGLLRKKSPAFATSP
- AmyQ secretion efficiency: 8.19

Sequence: MKLRKVLTGSVLSLGLLVSASPAFAEEE
- AmyQ secretion efficiency: 2.06

Sequence: MKLRKVLTGSVLSLGLLVSASPAFARKR
- AmyQ secretion efficiency: 5.66

Sequence: MKLRKVLTGSVLSLGLLVSASPAFATED
- AmyQ secretion efficiency: 2.67

Sequence: MKLRKVLTGSVLSLGLLVSASPAFATRK
- AmyQ secretion efficiency: 2.53

Sequence: MKLRKVLTGSVLSLGLLVSASPAFATSD
- AmyQ secretion efficiency: 2.17

Sequence: MKLRKVLTGSVLSLGLLVSASPAFATSR
- AmyQ secretion efficiency: 1.56

Sequence: MKLRKVLTGSVLSLGLLVSASPIFATSP
- AmyQ secretion efficiency: 1.63

Sequence: MKLRKVLTGSVLSLGLLVSASPNFATSP
- AmyQ secretion efficiency: 5.36

Sequence: MKLRKVLTGSVLSLGLLVSASPTFATSP
- AmyQ secretion efficiency: 1.93

Sequence: MKLRKVLTGSVLSLVSASPAFATSP
- AmyQ secretion efficiency: 3.59

Sequence: MKLRKVRKGSVLSLGLLVSASPAFATSP
- AmyQ secretion efficiency: 4.34

Sequence: MKLRKVRRRKKRSLGLLVSASPAFATSP
- AmyQ secretion efficiency: 8.72

Sequence: MKLSVKFLFIAGVLTVAAAAMTAKMYATAKGN
- AmyQ secretion efficiency: 4.51

Sequence: MKLSVKIAGVLTVAAAAMDDEDDEATAKGN
- AmyQ secretion efficiency: 7.46

Sequence: MKLSVKIAGVLTVAAAAMEDDMYATAKGN
- AmyQ secretion efficiency: 6.49

Sequence: MKLSVKIAGVLTVAAAAMEEKMYATAKGN
- AmyQ secretion efficiency: 7.66

Sequence: MKLSVKIAGVLTVAAAAMIAIATTAKMYATAKGN
- AmyQ secretion efficiency: 5.63

Sequence: MKLSVKIAGVLTVAAAAMKATAKGN
- AmyQ secretion efficiency: 7.76

Sequence: MKLSVKIAGVLTVAAAAMRKKMYATAKGN
- AmyQ secretion efficiency: 7.43

Sequence: MKLSVKIAGVLTVAAAAMRKRKKRATAKGN
- AmyQ secretion efficiency: 7.22

Sequence: MKLSVKIAGVLTVAAAAMSTAKMYATAKGN
- AmyQ secretion efficiency: 7.14

Sequence: MKLSVKIAGVLTVAAAAMTAGMYATAKGN
- AmyQ secretion efficiency: 5.78

Sequence: MKLSVKIAGVLTVAAAAMTAKMYATAADD
- AmyQ secretion efficiency: 6.81

Sequence: MKLSVKIAGVLTVAAAAMTAKMYATAAGD
- AmyQ secretion efficiency: 6.46

Sequence: MKLSVKIAGVLTVAAAAMTAKMYATAAGN
- AmyQ secretion efficiency: 6.91

Sequence: MKLSVKIAGVLTVAAAAMTAKMYATAEEE
- AmyQ secretion efficiency: 6.08

Sequence: MKLSVKIAGVLTVAAAAMTAKMYATAKKK
- AmyQ secretion efficiency: 5.42

Sequence: MKLSVKIAGVLTVAAAAMTAKMYATDKGN
- AmyQ secretion efficiency: 5.75

Sequence: MKLSVKIAGVLTVAAAAMTAKMYATEKGN
- AmyQ secretion efficiency: 4.74

Sequence: MKLSVKIAGVLTVAAAAMTAKMYATFTGTFAATAKGN
- AmyQ secretion efficiency: 7.49

Sequence: MKLSVKIAGVLTVAAAAMTAKMYATGKGN
- AmyQ secretion efficiency: 6.84

Sequence: MKLSVKIAGVLTVAAAAMTAKMYATHKGN
- AmyQ secretion efficiency: 6.71

Sequence: MKLSVKIAGVLTVAAAAMTAKMYATIKGN
- AmyQ secretion efficiency: 6.84

Sequence: MKLSVKIAGVLTVAAAAMTAKMYATKKGN
- AmyQ secretion efficiency: 8.52

Sequence: MKLSVKIAGVLTVAAAAMTAKMYATLKGN
- AmyQ secretion efficiency: 7.31

Sequence: MKLSVKIAGVLTVAAAAMTAKMYATMKGN
- AmyQ secretion efficiency: 6.84

Sequence: MKLSVKIAGVLTVAAAAMTAKMYATNKGN
- AmyQ secretion efficiency: 6.32

Sequence: MKLSVKIAGVLTVAAAAMTAKMYATPKGN
- AmyQ secretion efficiency: 5.67

Sequence: MKLSVKIAGVLTVAAAAMTAKMYATQKGN
- AmyQ secretion efficiency: 7.51

Sequence: MKLSVKIAGVLTVAAAAMTAKMYATRKGN
- AmyQ secretion efficiency: 7.91

Sequence: MKLSVKIAGVLTVAAAAMTAKMYATSKGN
- AmyQ secretion efficiency: 6.78

Sequence: MKLSVKIAGVLTVAAAAMTAKMYATTKGN
- AmyQ secretion efficiency: 5.53

Sequence: MKLSVKIAGVLTVAAAAMTAKMYATVKGN
- AmyQ secretion efficiency: 6.87

Sequence: MKLSVKIAGVLTVAAAAMTAKMYATWKGN
- AmyQ secretion efficiency: 7.14

Sequence: MKLSVKIAGVLTVAAAAMTAKMYATYKGN
- AmyQ secretion efficiency: 7.14

Sequence: MKLSVKIAGVLTVAAAAMTAKMYCTAKGN
- AmyQ secretion efficiency: 7.19

Sequence: MKLSVKIAGVLTVAAAAMTAKMYDTAKGN
- AmyQ secretion efficiency: 4.44

Sequence: MKLSVKIAGVLTVAAAAMTAKMYFFPAATAKGN
- AmyQ secretion efficiency: 6.16

Sequence: MKLSVKIAGVLTVAAAAMTAKMYFTAKGN
- AmyQ secretion efficiency: 7.66

Sequence: MKLSVKIAGVLTVAAAAMTAKMYGTAKGN
- AmyQ secretion efficiency: 5.59

Sequence: MKLSVKIAGVLTVAAAAMTAKMYHTAKGN
- AmyQ secretion efficiency: 6.87
